The nanobody polyreactivity screen of Harvey et al. (2022)

Experiment: yeast display, Sf9 membrane polyspecificity reagent, FACS + sequencing; frameworks hold sequencing errors
In short: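 After 36–48 hours of galactose induction, yeast (Saccharomyces cerevisiae BJ5465) displaying a synthetic nanobody library were stained at 4 °C for 1 hour with 10% biotinylated, detergent-solubilized Sf9 membrane reagent. Streptavidin microbeads enriched the stained cells before FACS sorting into low and high (top ~1%) gates on anti-HA and streptavidin fluorescence. Each clone's polyreactivity label reflects its gate of origin.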

Sequence	polyreactivity (PSR sort gate)
QVQLVESGGGLVQAGGSLRLSCAASGRTFARYAMGWYRQAPGKERELVAAISWSGGRTYYADSVKGRFTISRDNAKNTVYLQMNSLKPEDTAVYYCAASLYRRQMDHWGQGTQVTVSS	high polyreactivity
QVQLVESGGGLVQAGGSLRLSCAASGRTFARYDKGWYRQAPGKERELVAGINGDGGSTNYADSVKGRFTISRDNAKNTVYLQMNSLKPEDTAVFYCNVDQEDRKLHVSIKQLSDHWGQGTQVTVSS	low polyreactivity
QVQLVESGGGLVQAGGSLRLSCAASGRTFASNAMGWSRQAPGKERELVAAISVTGGRTYYADSVKGRFTISRDNAKNTVYLLMNSLKPEDTAVYYCAKVTKLDPYSYDYWGQGTQVTVSS	low polyreactivity
QVQLVESGGGLVQAGGSLRLSCAASGRTFASNAMGWYTQAPGKERELVAAITISGGRTYYADSVKGRFTISRDNAKNTVYLQMNSLIPEDTAVYYCAAAKHSWRPSYYWGGYWGQGTQVTVSS	low polyreactivity
QVQLVESGGGLVQAGGSLRLSCAASGRTFASYAMGWYRQAPGKERELVAVISRGGSNTNYADSVTGRFTISRDNAKNTVYLQMNSLKPEDTAVYYCADLAFKRYNPGGYDYWGQGTQVTVSS	high polyreactivity
QVQLVESGGGLVQAGGSLRLSCAASGRTFATYAMGWYRQAPGKERELVAAITSGGSTNYADSVKGRFTISRDNAKNTVYLQMNSLKPEDTAVYYCNAYKTNRGSGPWYTGRYDYWGQGTQVTVSS	low polyreactivity
QVQLVESGGGLVQAGGSLRLSCAASGRTFAVNVMGWYIPAPGKERELVAAIDFDDGITYYADSVKGRFTISRDNAKNTVYLQMNSLKPEDTAVYYCAAEFVYFGSDYYYWGQGTQVTVSS	high polyreactivity
QVQLVESGGGLVQAGGSLRLSCAASGRTFAWYAMGWYRQAPGKERELVAAITTRGSGTYYADSVKGRFTISRDNAKNTVYIQMNSLKPEDTAVYYCAKDPITVTTVDERVYYWGQGTQVTVSS	low polyreactivity
QVQLVESGGGLVQAGGSLRLSCAASGRTFAWYAMGWYRQAPGKERELVAAITTRGSGTYYADSVKGRFTISRDNAKNTVYLQMNSLKPEDTAVYYCAKDPITATTLDERVFYWGQGTQVTVSS	low polyreactivity
QVQLVESGGGLVQAGGSLRLSCAASGRTFAWYTMGWYRQAPGKERELVASITKRGGRTYYADSVKGRFTISRDNAKNTVYLQMNSLKPEDTAVYYCAAGASQGRGTVTFDYWGQGTQVTVSS	high polyreactivity
QVQLVESGGGLVQAGGSLRLSCAASGRTFAYNAMGWYRQAPGKDRELVAAITRRGGSTYYADSVKGRFTISRDNAKNTVYLQMNSLKPEDTAVYDCAKVLGGLPHGEVLDEYDYWGQGTQVTVSS	low polyreactivity
QVQLVESGGGLVQAGGSLRLSCAASGRTFAYNAMGWYRQAPGKERELVADITWSGDSTYYADSVKGRFTISRDNAKNTVYLQMNSLKPEDTAVYYCAADYFGGPSYEFDYWGQGTQVTVSS	low polyreactivity
QVQLVESGGGLVQAGGSLRLSCAASGRTFAYTDMGWYRQAPGNERELVAAISWSDGTTYYADSVKGRFTISRDNAKNTVYLQMNSLKPEDTAVYYCAAESYPSEVASYVSEYDYWGQGTQVTVSA	low polyreactivity
QVQLVESGGGLVQAGGSLRLSCAASGRTFAYYAMGWYRQAPGTERELVAGITYSGGRTYYADSVKGRFTISRDNAKNTVYLQMNSLKPEDTAVYYCATRWPSKPTSRAMYYWGQGTQVTVSS	high polyreactivity
QVQLVESGGGLVQAGGSLRLSCAASGRTFDAYAMGRYRQAPGKERELVARITSGGSTKYADSVKGRFTISRDNAKNTVYLQMNSLKPEDTAVYYCAAAQYWPSFFSNRVYYRNDYWGQGTQVTVSS	high polyreactivity
QVQLVESGGGLVQAGGSLRLSCAASGRTFDAYAMGWYRQAPGKERELVAAISSGGSTNYADSVKGRFTISRDHAKNTVYLQKNSLKPEDTAVYYCAAEYIQYLFYSVRVAYDYWGQGTQVTVSS	low polyreactivity
QVQLVESGGGLVQAGGSLRLSCAASGRTFDAYAMGWYRQAPGKERELVATITSGGGTYYADSVKGRFTISRDNAKNTVYLQMNSLKPEDTAVYYCNISYVVSRKYDYWGQGTQVTVSS	low polyreactivity
QVQLVESGGGLVQAGGSLRLSCAASGRTFDDNAMGWYRPAPGKARELVAAISTTGSTNYADSVKGRFTISRDNAQTTVYLQMNSLKPEDTAFYYCAADSTPYVRSGNYDYWGQGTQVTVSS	low polyreactivity
QVQLVESGGGLVQAGGSLRLSCAASGRTFDDNAMGWYRQAPGKERELVAAINFTGGSTYYADSVKGRFTISRDNAQNTVSLQMNSLKPEDTAVYYCAVRPGYYCGYWPRFGYWGQGSQVTVSS	low polyreactivity
QVQLVESGGGLVQAGGSLRLSCAASGRTFDDYPMGWYRQAPGKDSELVAAITRRGGSTYYADSVKGRFTISRDNAKNTVYLQMNSLNPEDTAVYYCAADLFFKARGYDYWGQGTQVTVST	high polyreactivity
QVQLVESGGGLVQAGGSLRLSCAASGRTFDGYAMGWYRPAPGKERELVAAISWGGGSTYYADSVKGRFTISRDNAKNTVYLQMNSLKPEDTAVYYCNAYTYYYGNDYWGQGTQVNVSS	high polyreactivity
QVQLVESGGGLVQAGGSLRLSCAASGRTFDHNAMGWYRQAPGKERELVAAINSSGGRTYYADSVKGRFTISRDNAQNTVYLQMNSLQPEDTAVYYCATVNVRGPPYDYWGQGTQVTVSS	high polyreactivity

Sequence	polyreactivity (PSR sort gate)
QVQLVESGGGLVQAGGSLRLSCAASGRTFDIYAMGWYRQAPGKARELVAAISIAGSTNYADSVKGRFTISRDNAKNTVYLQMNSLKPEDTAVYYCAAAKPKKSRGSAYEYWGQGTLVTVSS	high polyreactivity
QVQLVESGGGLVQAGGSLRLSCAASGRTFDKYAMGWYRQAPGKERELVAAITRSGGSTYYADSVKGRFTISRDNAKNTVYLQMNSLKPEDTAVYYCAKRYWSYRWKYDYWGQGTQVTVSS	high polyreactivity
QVQLVESGGGLVQAGGSLRLSCAASGRTFDLYAMGWYRQAPGKERELVARITNIDDSTYYADSVKGRFTISRDNAKNTVYLQMNSLKPEDTAVYYCNAVVTKYAKSRFLYYYWGQGTQVTVSS	high polyreactivity
QVQLVESGGGLVQAGGSLRLSCAASGRTFDPNVMGWYRQAPGKERELVAAISRGGSTYYADSVKGRFTISRDNAKNTVYLQMNSLKPEDTAVYYCAATHYGHSISYWFDYWGQGTQVTVSS	high polyreactivity
QVQLVESGGGLVQAGGSLRLSCAASGRTFDRDAKGWYRQAPGKERELVAVIRFIGGSTYYAYSVKGRFTISRDNAKNTVFLQMNSLKQEDTAVYDCATRGPIWGQRYYKGYYWGQGTQVTVSS	low polyreactivity
QVQLVESGGGLVQAGGSLRLSCAASGRTFDRNTMGWYRQAPGKQRELVAAISSSGGSTYYADSVKGRFTISRDNAKNTVYLQMNSLKPEDTAVYYCAARQSPNRWMGYWGQGTQVTVSS	high polyreactivity
QVQLVESGGGLVQAGGSLRLSCAASGRTFDTNAMGWYRQAPGKERELVAGITIGGSTNYADSVKGRFTISRDNAKNTVYLQMNILKPEDTAVYYCAADYGSVRGYAADYYEPEYDYWGQGTQVTVSS	low polyreactivity
QVQLVESGGGLVQAGGSLRLSCAASGRTFDVYTMGWYRQAPGKERELVAAINGGGSTYYADSVKGRFTISRDNAKNTVYSQMNSLKPEDTAVYYCAAKFRAGRSSYYWGQGTQVTVSS	high polyreactivity
QVQLVESGGGLVQAGGSLRLSCAASGRTFDYNAMGWYRQAPGKERELVAAISSSGGSTYYADSVKGRFTISRDNAKNTVYLQMNSLKAEDTAVYYCATLYPRKSIYYYWGQGTQVTVSS	high polyreactivity
QVQLVESGGGLVQAGGSLRLSCAASGRTFDYYVMGWYRQAPGKERELVAAISRRGGSTYYADSVKGRFTISRDNAKNTVYLQMNSLKPEDTAVYYCAAQYYYAREDYWGQGTQVTVSS	high polyreactivity
QVQLVESGGGLVQAGGSLRLSCAASGRTFEGNAMGWYRQAPGKERELVAAISTSGGRTYYADSVKGRFTISRDNAKNTVYLQMNSLKPDDTAVYYCAVDHYSSYEYWGQGTQVTVSS	low polyreactivity
QVQLVESGGGLVQAGGSLRLSCAASGRTFEGNAMGWYRQAPGKERELVAAITSGGRTNYADSVKGRFTISRDNAKNTVYLQMNSLKPEDTAVYYCAVETRDRSTYFPGQAYDYWGQGTQVTVSS	low polyreactivity
QVQLVESGGGLVQAGGSLRLSCAASGRTFERNAMGWYRPAPGKERELVAAITWSGVSTYYADSVKGRFTISRDNAKNTVYLQMNSLKPEDTAVYYCAADWDWRFHRMNYWGQGTQVTVSS	low polyreactivity
QVQLVESGGGLVQAGGSLRLSCAASGRTFEVYTMGWYRQAPGKERELVARIRRGASTNYADSVKGRFTISRDNAKNTVYLQMNSLKPEDTAVYYCNARYTAVAVRWTWPYETQADDYWGQGTQVTVSS	low polyreactivity
QVQLVESGGGLVQAGGSLRLSCAASGRTFEYYAMGWYRPAPGKERELVAAITWSVGSTYYADSVKGRFTISRDNAKNTVYLQMNSLKPEDTAGYYCAVDVVYTWPFPVEYYYWGQGTQVTVSS	high polyreactivity
QVQLVESGGGLVQAGGSLRLSCAASGRTFEYYAMGWYRQAPGKERELVAAITYSGDSTYYADSVKGRFTISRDNAKNTVYLQMNSLKPEDTAVYYCAADWSSLKDDYWGQGTQVTVSS	low polyreactivity
QVQLVESGGGLVQAGGSLRLSCAASGRTFFDNAMGWYRQAPGKEREFVAAISYNGGSTYFADSVKGRFTISRDNAKNTVYLQMNSLKPEDTAVYYCAADPNYGYDYWGQGTQVTVSS	low polyreactivity
QVQLVESGGGLVQAGGSLRLSCAASGRTFFENAMGWYRQAPGKEREFVAAISYNGGSTYYADSVKGRFTISRDNAKNTVYLQMNSLKTEDTAVYYCAADPNYGYDYWGQGTQVTVSS	low polyreactivity
QVQLVESGGGLVQAGGSLRLSCAASGRTFFFYAMGWYRQAPGKERELVASITWSGGTRTYYADSVKGRFTISRDNAKNTVYLQMNSLKPEDTAFYYCAATDSSYWFNRYGGKYYYWGQGTQVTVSS	high polyreactivity
QVQLVESGGGLVQAGGSLRLSCAASGRTFFGNAKGWYRQAPGKERELVASISTRGGSTYYADSVKGRFTISRDNAKNTVYLQMNSLKPEDTAVYYCAKRGRDRRIYGYWGQGTQVTVSS	high polyreactivity
QVQLVESGGGLVQAGGSLRLSCAASGRTFFGYTMGWYRHAPGKERELVAVISKRGGRTYYADSVKGRFTISRDNAKNTVYLQMNSLKPEDTAVYYCNRVKDSNVSQAMEYWGQGTQVTVSS	high polyreactivity
